Experimental data reported in the supplement of paper PMC9170038.

Test system: MS2 coat protein
Assay: apparent KD of MS2 coat protein; designed switch direction (-1 OFF switch, 1 ON switch): -1; higher = weaker reporter binding
Method in brief: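 Designed RNA switches with common flanks were transcribed on Illumina chips by stalled E. coli RNA polymerase and titrated with SNAP-549-labelled MS2 coat protein, from 0.7 or 1.5 nM doubling to 3 µM, in Tris-HCl pH 7.5 buffer with KCl, MgCl2, BSA, DTT, tRNA and Tween-20. Steps lasted 0.8–1.5 h (lowest) to 10–20 min (highest). Titrations ran without input, with 200 uM small-molecule ligand, or with an oligonucleotide input. Normalised cluster fluorescence was curve-fitted, and apparent KD is the per-design median over clusters.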

[1] = Eterna round: R95, input ligand: FMN 200 uM
[2] = Eterna round: R95, input ligand: microRNA oligo, concentration not stated
[3] = Eterna round: R95, input ligand: none
[4] = input ligand: microRNA oligo, concentration not stated

| Sequence | apparent KD of MS2 coat protein [1] | apparent KD of MS2 coat protein [2] | apparent KD of MS2 coat protein [3] | apparent KD of MS2 coat protein (input ligand: FMN 200 uM) | apparent KD of MS2 coat protein [4] | apparent KD of MS2 coat protein (input ligand: none) |
| --- | --- | --- | --- | --- | --- | --- |
| GUGGUGGGUUUUUCGAGUAACAUGAGGAUCACCCAUGUAUUAGUUGGAUGUAUCAAGCUUUGUGCUCGACUUAUAUA [JR_SV3TOV1_Sub044] (puzzle: Sensor v3, turn-off variant 1) | 659 nM | 442 nM | 696 nM |  |  |  |
| GUGGUUUGUGUAGGAUAUUCGUUUGUGCGGUGCGGAGAAGGACAUGAGGAUCACCCAUGUGUGCGAGGAUCACCCGUGUGUUGU [double 2 (less A)] (Eterna round: R96, puzzle: Exclusion NG 1) |  |  |  | 55.6 nM | 40.3 nM | 50.5 nM |
| GUGUACAGAGGAUAUACACGAGUAGUUACGAAAGUAACUACACAUGAGGAUCACCCAUGUAGAAGGCUGUACAC [Dot plot directed] (puzzle: Exclusion 2) |  | 20.4 nM |  |  |  |  |
| GUGUACUGAGGAUAUGCUGGAAUCUAGCGAAGCUAGGUUCCACAUGAGGAUCACCCAUGUAGAAGGCGGUACAC [Dot plot directed A v6] (puzzle: Exclusion 2) |  | 29.1 nM |  |  |  |  |
| GUGUAGAUAGGAUAUGCUUAGAGCUUACGAAAGUAGGCUCUACAUGAGGAUCACCCAUGUAGAAGGGUCUACAC [Dot plot directed A v16] (puzzle: Exclusion 2) |  | 24.9 nM |  |  |  |  |
| GUGUAGAUAGGAUAUGCUUUGAGCCUACGAAAGUACGCUCGACAUGAGGAUCACCCAUGUAGAAGGGUUUACAC [LRO-Excl2-05] (puzzle: Exclusion 2) |  | 88.7 nM |  |  |  |  |
| GUGUAGUCAGGAUAUACAUAGGAAGAGAAGAUAAGAUAAGCACAUGAGGAUCACCCAUGUAGAAGGGACAGUGU [Excluse me!! 2 - Jieux - Exclusion 2] (puzzle: Exclusion 2) | 77.6 nM | 66.1 nM | 61 nM |  |  |  |
| GUGUUACAUGAGGAUCACCCAUGUGAGGAUAUGAGUCAGUCACGGUGACGUGGCUGACUCAGAAGGCACAAAGG [Mat - Exclusion 1 - JL Mod - D39] (Eterna round: R97, puzzle: Exclusion 1) |  |  |  | 291 nM |  | 93.9 nM |
| GUUAAACAUGAGGAUCACCCAUGUAAGGAUAUGCUGAGGUAGAGAUGAAGUGAAUGAAGCAGAAGGUACAAUUG [Mat - Mod of JL D55] (puzzle: Exclusion 1) | 62.6 nM | 81.8 nM | 78.8 nM |  |  |  |
| GUUAACGCAGGAUAUUAGUACAUGUACAUGAGGAUCACCCAUGUUUAGUGGGUCUAGGAAUAAGAAGGGCGAUGAA [JR_Ex5_Sub007] (Eterna round: R97, puzzle: Exclusion 5) |  |  |  | 280 nM |  | 535 nM |
| GUUAAGUGAGGAUAUGGUAAAUUAAUUAUUAAUUAAUUAAUCCAGAAGGCACAUGAGGAUCACCCAUGUAAAUG [Mat - Exclusion 4 - D87] (puzzle: Exclusion 4) | 54.6 nM | 30.5 nM | 31.5 nM |  |  |  |
| GUUAGACAUGAGGAUCACCCAUGUGAGGAUAUGAUGCGAUCGUGCUGACAUGAUCGCAUCAGAAGGCACAUAUG [Mat - Mod of JL D66] (puzzle: Exclusion 1) |  | 95.7 nM |  |  |  |  |
| GUUAGUUAAGGAUAUACAGGGAGCUGCGGCGUCUCGCCGCAACAUGAGGAUCACCCAUGUAGAAGGUGGCCAUU [JL ViennaUCT Enbibi mod 3] (puzzle: Exclusion 2) |  | 471 nM |  |  |  |  |
| GUUAUGUAAGGAUAUAUGAGUCACGGAAAUAAACCGUGAAGAUAGAAGGUACAUGAGGAUCACCCAUGUAAGGC [Mod of Anonveat 9 - Jieux - Exclusion 4] (Eterna round: R97, puzzle: Exclusion 4) |  |  |  | 16.7 nM |  | 14 nM |
| GUUAUGUCAGGAUAUGCUAAUGAUGAGUGCUCAGACAUGAUGCAGAAGGGACAUGAGGAUCACCCAUGUACUGA [EX4 #12] (Eterna round: R97, puzzle: Exclusion 4) |  |  |  | 102 nM |  | 35.3 nM |
| GUUCGACAUGAGGAUCACCCAUGUGAGGAUAUACGAUUAGCUGCUAGGUAGUUAGUAUGUAGAAGGUGCAUGAA [EX1 #73] (Eterna round: R97, puzzle: Exclusion 1) |  |  |  | 55.2 nM |  | 41.7 nM |
| GUUCGACAUGAGGAUCACCCAUGUGAGGAUAUACGAUUAGCUGCUAGGUAGUUAGUAUGUAGAAGGUGCGUGAA [EX1 #72] (Eterna round: R97, puzzle: Exclusion 1) |  |  |  | 44 nM |  | 41.6 nM |

| Sequence | apparent KD of MS2 coat protein [1] | apparent KD of MS2 coat protein [2] | apparent KD of MS2 coat protein [3] | apparent KD of MS2 coat protein (input ligand: FMN 200 uM) | apparent KD of MS2 coat protein [4] | apparent KD of MS2 coat protein (input ligand: none) |
| --- | --- | --- | --- | --- | --- | --- |
| GUUGCUACUGAGGAUAUUAUUUUACCCGACUGAUAAGAAGGCAGUACAUGAGGAUCACCCAUGUGGGUAGCCAG [Polaris15] (Eterna round: R97, puzzle: Exclusion 6) |  |  |  | 44.1 nM |  | 21.8 nM |
| GUUGUGUGAGGAUAUGCCUGGCCGUGAGGCCAGAUUGAGUGGCAGAAGGUACAUGAGGAUCACCCAUGUACGGG [salish99_ex4_4_004] (Eterna round: R97, puzzle: Exclusion 4) |  |  |  | 54.1 nM |  | 24.4 nM |
| GUUGUUCGAGGAUAUACAUGAGGAUCACCCAUGUGUGUUGUGGGCGACGUUCGUUUAUGUAGAAGGCGGGCGGC [-27.2, -23.9 kcal, 19% A] (Eterna round: R97, puzzle: Exclusion 3) |  |  |  | 78.2 nM |  | 50.1 nM |
| GUUUAGUGAGGAUAUAAGGCUUCGAUCGAGCGCGGUCUGCUACAGAAGGCACAUGAGGAUCACCCAUGUUUCUC [salish99_ex4_r4_311] (Eterna round: R97, puzzle: Exclusion 4) |  |  |  | 29.2 nM |  | 34.4 nM |
| GUUUCACAUGAGGAUCACCCAUGUGAGGAUAUGAAUUUGUUAACCGUAGUUAAUAGAUUCAGAAGGCGCGUGAU [JRxlusion 1- Jieux - Exclusion 1] (Eterna round: R97, puzzle: Exclusion 1) |  |  |  | 66.6 nM |  | 70.3 nM |
| GUUUGCACGCUGCGGUCCUACAUGAGGAUCACCCAUGUGGUCUGGUGGCGUGGGUCGCCGGACUUGGCUCGUCUUGG [salish99_S_TOV1_R5_039] (Eterna round: R97, puzzle: Sensor, turn-off variant 1) |  |  |  | 15 nM |  | 14.8 nM |
| UAAAAGAAAGUAAGGAUAUCUAAAUUGGAAAAGAGAGAGAAGGUACAUGAGGAUCACCCAUGUAGGGUAUCCUG [Ritien] (Eterna round: R97, puzzle: Brourd's mod of Exclusion 4) |  |  |  | 41.8 nM |  | 42.2 nM |
| UAAAAGCUAGGAUAUACAUGAGGAUCACCCAUGUACCGGCUUGGCCCUGGUCCUAAAUGUAGAAGGAGCACGCC [Zarebebi] (puzzle: Exclusion 3) |  | 14.2 nM |  |  |  |  |
| UAAAGUGAGUCCUCGCAGCAGCGUAGGGCGGUGCUAGCUACAUGAGGAUCACCCAUGUUUUCGCUCGUCCAGCACCU [Ceaorreti] (Eterna round: R96, puzzle: Sensor v2, turn-off variant 2) |  |  |  | 89.2 nM | 59.2 nM | 101 nM |
| UAAAUGUGAGGAUAUCAGGUGUGCUAGAGAACUGGUACAUCUGAGAAGGCACAUGAGGAUCACCCAUGUUCUUC [Mat - Exclusion 4 - Mod of JL - D56] (puzzle: Exclusion 4) |  | 38.3 nM |  |  |  |  |
| UAACGUGGCCUGAUCCUCCCUAACAUGAGGAUCACCCAUGUCUAGGAUAUCCGAACAAACAACGAGGAGAAGGAGACGAAACAU [Veleedan] (Eterna round: R96, puzzle: Exclusion NG 3) |  |  |  | 37.5 nM | 22.7 nM | 28.3 nM |
| UAACUACAUGUAGGAUAUGCGUGGCGAAGCUAUGCAGAAGGACAUGAGGAUCACCCAUGUUUUAGCGUCUGCGUACAGAUGCGU [JL ENG1 1.50] (Eterna round: R96, puzzle: Exclusion NG 1) |  |  |  | 34.8 nM | 13.1 nM | 19.1 nM |
| UAACUUCUAGUAAGGAUAUCGGUCCCAAGGGACAACGAGAAGGUACAUGAGGAUCACCCAUGUGAAAUAAGAAU [Mod of Zala 2 - Jieux - Brourd's Mod of Exclusion 4] (Eterna round: R97, puzzle: Brourd's mod of Exclusion 4) |  |  |  | 72.9 nM |  | 20.7 nM |
| UAAGCUCUGUCAGGAUAUCCCUGUAAACGCAACGGAGAAGGGACAUGAGGAUCACCCAUGUGCGGGCCCAACGCGCUCGGGUCC [Dilacesole] (Eterna round: R96, puzzle: Exclusion NG 1) |  |  |  | 63.6 nM | 23.6 nM | 35.1 nM |
| UAAGUUUACCGAGGAUAUGGUCCAUAAUUUUUACCAGAAGGCGGACUCAACAUGAGGAUCACCCAUGUAUAAAGGGUAUUUGGU [JR_ExcNG1_Sub046] (Eterna round: R96, puzzle: Exclusion NG 1) |  |  |  | 51.2 nM | 27.4 nM | 35.8 nM |
| UAAUAACAUGUAGGAUAUGCGUGGCGAAGCUAUGCAGAAGGACAUGAGGAUCACCCAUGUUAAAGCGUCUGCGUACAGAUGCGA [Mat - Exclusion NG 1 - Mod of JL - D97] (Eterna round: R96, puzzle: Exclusion NG 1) |  |  |  | 188 nM | 30.1 nM | 31.1 nM |
| UAAUAUAGUGUGAGGAUAUGCUGGUCCUUGGAUCAGCAGAAGGCACAUGAGGAUCACCCAUGUAGUUUAUUUUA [Mat - Exclusion 4 - JL Mod - D2] (puzzle: Brourd's mod of Exclusion 4) | 141 nM | 28.2 nM | 28.2 nM |  |  |  |
